Measured values: patent publication US10172953B2, “XTEN conjugate compositions and methods of making same” (Amunix Operating Inc., priority 2012, dated 2019)
Like-named read-outs stand apart in the source and are kept apart here. Values belong to the molecule of their own block, whether it stands above or below them. Numbered stars: 1 amine (or outer) side, 2 acyl side, 3 side chain; on linkers, the order of the positions; unused ones are H or OH. Square brackets hold non-standard residues; d marks the D form. Side chains are listed from the residue outwards. Ends that are not written are not given here. Peptide text beside a SMILES is read from it. * marks the point of attachment. Ethylenediamine = C(CN[*:2])N[*:1]; Hyp = O=C(O)[C@@H]1C[C@@H](O)CN1; Phg = N[C@H](C(=O)O)c1ccccc1; CO = O=C([*:1])[*:2]; Bn = c1ccc(C*)cc1

Legend:
[1] = Analytical size exclusion chromatography (apparent MW, hydrodynamic radius); format: physicochemical; conditions: for Apparent MW / RH (hydrodynamic radius): SEC; for Apparent Molecular Weight Factor: ratio of apparent molecular weight to calculated molecular weight
Procedure: Size exclusion chromatography analyses were performed on fusion proteins containing various therapeutic proteins and unstructured recombinant proteins of increasing length. […] Chromatogram profiles were monitored using OD214 nm and OD280 nm.

[2] = cited from earlier work
[3] = cited from earlier work; remark: listed apart in the source
[4] = cited from earlier work; remark: listed apart in the source
[5] = target: human recombinant GLP-2 glucagon family receptor (human) (UniProt O95838); assay: cell-based or functional assay
[6] = unmodified peptide/protein, humans/patients
[7] = unmodified peptide (GLP-1: biological half-life)
[8] = unmodified peptide/protein, humans (oxyntomodulin: in human plasma; ghrelin: terminal half-life)

Chain of UniProt O95838 (O95838 whole entry): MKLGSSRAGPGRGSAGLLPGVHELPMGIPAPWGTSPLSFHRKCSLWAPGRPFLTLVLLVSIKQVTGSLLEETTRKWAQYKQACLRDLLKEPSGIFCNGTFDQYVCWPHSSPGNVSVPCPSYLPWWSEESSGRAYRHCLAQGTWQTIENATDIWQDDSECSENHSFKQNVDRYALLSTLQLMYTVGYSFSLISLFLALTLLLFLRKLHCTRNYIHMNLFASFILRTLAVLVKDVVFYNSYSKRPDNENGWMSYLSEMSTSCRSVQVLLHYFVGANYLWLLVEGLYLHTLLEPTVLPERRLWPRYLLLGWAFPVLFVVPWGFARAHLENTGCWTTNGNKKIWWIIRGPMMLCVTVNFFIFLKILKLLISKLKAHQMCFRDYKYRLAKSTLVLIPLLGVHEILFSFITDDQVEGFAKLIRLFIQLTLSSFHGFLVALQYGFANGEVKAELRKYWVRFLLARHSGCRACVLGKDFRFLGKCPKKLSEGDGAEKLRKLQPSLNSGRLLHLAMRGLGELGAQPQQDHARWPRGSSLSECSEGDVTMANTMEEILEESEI

Molecule: AC616: fusion: XTEN AE864, GLP2-2G
Apparent MW [1]: 1427 kDa
RH (hydrodynamic radius) [1]: 10 nm
Apparent Molecular Weight Factor [1]: 17.2

Molecule: CNP-22
half-life ([2]; unmodified peptide/protein (Fxa: plasma half-life)): 2.6 min

Molecule: ghrelin: human hormone GSSFLSPEHQRVQQRKESKKPPAKLQPR (SEQ ID NO: 557) (listed as Homo sapiens)
half-life ([3]; human, in vivo): 0.167 to 0.5 h

Molecule: oxyntomodulin: 37 amino acid peptide (SEQ ID NO: 552)
half-life ([3]; human, in vivo): ~0.2 h

Molecule: POT4: synthetic cyclic peptide H-Ile-[Cys-Val-Val-Gln-Asp-Trp-Gly-His-His-Arg-Cys]-Thr-NH2, C3 complement inhibitor [reference compound]
circulating in vivo half-life ([2]; in vivo): 8 h

Molecule: NCCCC[C@@H]1NC(=O)[C@@H](Cc2c[nH]c3ccccc23)NC(=O)[C@H](c2ccccc2)NC(=O)[C@@H]2C[C@@H](OC(=O)NCCN)CN2C(=O)[C@H](Cc2ccccc2)NC(=O)[C@H](Cc2ccc(OCc3ccccc3)cc2)NC1=O [Pasireotide, [(3S,6S,9S,12R,15S,18S,20R)-9-(4-aminobutyl)-3-benzyl-12-(1H-indol-3-ylmethyl)-2,5,8,11,14,17-hexaoxo-15-phenyl-6-[(4-phenylmethoxyphenyl)methyl]-1,4,7,10,13,16-hexazabicyclo[16.3.0]henicosan-20-yl] N-(2-aminoethyl)carbamate, reference compound] (cyclo([Hyp]([CO-Ethylenediamine])[Phg][dW]KY(Bn)F))
half-life [3, 6]: 12 to 17 h

Molecule: GLP-(7-37)OH: form of human glucagon like peptide-1 (HAEGTFTSDVSSTLEGQAALEFIAWLVKGRG; listed as Homo sapiens)
half-life [2, 7]: 3 to 5 min

Molecule: IL-7: human interleukin encoded by the IL7 gene (SEQ ID NO: 562)
half-life [3, 6]: approximately 10 h

Molecule: α-MSH: 13-amino acid peptide N-Ac-SYSMGFRWGLPV (SEQ ID NO: 564) (not fully specified; printed as N-Ac-SYSMGFRWGLPV; ends and bridges not checked)
half-life ([2]; unmodified form, in words): mere seconds

Molecule: relaxin
half-life [3, 8]: less than 10 min

Molecule: CC(C)[C@H]1C(=O)N[C@@H](CCCN=C(N)N)C(=O)NCC(=O)N[C@@H](CC(=O)O)C(=O)N[C@H](Cc2ccccc2)C(=O)N1C [cilengitide, 2-[(2S,5R,8S,11S)-5-benzyl-11-{3-[(diaminomethylidene)amino]propyl}-7-methyl-3,6,9,12,15-pentaoxo-8-(propan-2-yl)-1,4,7,10,13-pentaazacyclopentadecan-2-yl]acetic acid, reference compound]
half-life [3, 6]: 3 to 5 h
maximum drug concentration (poor solubility) [4]: ≤ 15 mg/mL

Molecule: C-peptide: human pancreatic protein, middle segment of proinsulin (SEQ ID NO: 556) (EAEDLQVGQVELGGGPGAGSLQPLALEGSLQ; listed as Homo sapiens)
half-life ([3]; unmodified peptide, humans): about 30 minutes

Molecule: enfuvirtide
half-life [3, 6]: 3.8 h

Molecule: GHRH: 44-amino acid peptide hormone (SEQ ID NO: 542)
half-life [2, 7]: less than 15 minutes

Molecule: metreleptin: the commercially available form of leptin [reference compound]
half-life [3, 8]: 0.13 to 0.5 h

B1: Endostatin: 20-kDa C-terminal fragment derived from type XVIII collagen (SEQ ID NO: 565) (protein, listed as Homo sapiens)
chain: HSHRDFQPVLHLVALNSPLSGGMRGIRGADFQCFQQARAVGLAGTFRAFLSSRLQDLYSIVRRADRAAVPIVNLKDELLFPSWEALFSGSEGPLKPGARIFSFDGKDVLRHPTWPQKSVWHGSDPNGRRLTESYCETWRTEAPSATGQASSLLGGRLLGQSAASCHHAYIVLCIENSFMTASK
half-life [3, 6]: 13 h

B2: Glucagon-Y288: fusion protein of glucagon plus XTEN Y288 (protein)
chain: HSQGTFTSDYSKYLDSRRAQDFVQWLMNTGEGSGEGSEGEGSEGSGEGEGSEGSGEGEGGSEGSEGEGGSEGSEGEGGSEGSEGEGSGEGSEGEGGSEGSEGEGSGEGSEGEGSEGGSEGEGGSEGSEGEGSGEGSEGEGGEGGSEGEGSEGSGEGEGSGEGSEGEGSEGSGEGEGSGEGSEGEGSEGSGEGEGSEGSGEGEGGSEGSEGEGSEGSGEGEGGEGSGEGEGSGEGSEGEGGGEGSEGEGSGEGGEGEGSEGGSEGEGGSEGGEGEGSEGSGEGEGSEGGSEGEGSEGGSEGEGSEGSGEGEGSEGSGE
Apparent MW [1]: 370 kDa
RH (hydrodynamic radius) [1]: 7.0 nm
Apparent Molecular Weight Factor [1]: 12.9

B3: AC404: fusion: XTEN AE864, FVII (protein)
chain: AVFVTQEEAHGVLHRRRRANAFLEELRPGSLERECKEEQCSFEEAREIFKDAERTKLFWISYSDGDQCASSPCQNGGSCKDQLQSYICFCLPAFEGRNCETHKDDQLICVNENGGCEQYCSDHTGTKRSCRCHEGYSLLADGVSCTPTVEYPCGKIPILEKRNASKPQGRIVGGKVCPKGECPWQVLLLVNGAQLCGGTLINTIWVVSAAHCFDKIKNWRNLIAVLGEHDLSEHDGDEQSRRVAQVIIPSTYVPGTTNHDIALLRLHQPVVLTDHVVPLCLPERTFSERTLAFVRFSLVSGWGQLLDRGATALELMVLNVPRLMTQDCLQQSRKVGDSPNITEYMFCAGYSDGSKDSCKGDSGGPHATHYRGTWYLTGIVSWGQGCATVGHFGVYTRVSQYIEWLQKLMRSEPRPGVLLRAPFPGSPGSPAGSPTSTEEGTSESATPESGPGTSTEPSEGSAPGSPAGSPTSTEEGTSTEPSEGSAPGTSTEPSEGSAPGTSESATPESGPGSEPATSGSETPGSEPATSGSETPGSPAGSPTSTEEGTSESATPESGPGTSTEPSEGSAPGTSTEPSEGSAPGSPAGSPTSTEEGTSTEPSEGSAPGTSTEPSEGSAPGTSESATPESGPGTSTEPSEGSAPGTSESATPESGPGSEPATSGSETPGTSTEPSEGSAPGTSTEPSEGSAPGTSESATPESGPGTSESATPESGPGSPAGSPTSTEEGTSESATPESGPGSEPATSGSETPGTSESATPESGPGTSTEPSEGSAPGTSTEPSEGSAPGTSTEPSEGSAPGTSTEPSEGSAPGTSTEPSEGSAPGTSTEPSEGSAPGSPAGSPTSTEEGTSTEPSEGSAPGTSESATPESGPGSEPATSGSETPGTSESATPESGPGSEPATSGSETPGTSESATPESGPGTSTEPSEGSAPGTSESATPESGPGSPAGSPTSTEEGSPAGSPTSTEEGSPAGSPTSTEEGTSESATPESGPGTSTEPSEGSAPGTSESATPESGPGSEPATSGSETPGTSESATPESGPGSEPATSGSETPGTSESATPESGPGTSTEPSEGSAPGSPAGSPTSTEEGTSESATPESGPGSEPATSGSETPGTSESATPESGPGSPAGSPTSTEEGSPAGSPTSTEEGTSTEPSEGSAPGTSESATPESGPGTSESATPESGPGTSESATPESGPGSEPATSGSETPGSEPATSGSETPGSPAGSPTSTEEGTSTEPSEGSAPGTSTEPSEGSAPGSEPATSGSETPGTSESATPESGPGTSTEPSEGSAPGSSS
Apparent MW [1]: 1900 kDa
RH (hydrodynamic radius) [1]: 10.1 nm
Apparent Molecular Weight Factor [1]: 14.7

B4: AC398: fusion: XTEN AE288, FVII (protein)
chain: AVFVTQEEAHGVLHRRRRANAFLEELRPGSLERECKEEQCSFEEAREIFKDAERTKLFWISYSDGDQCASSPCQNGGSCKDQLQSYICFCLPAFEGRNCETHKDDQLICVNENGGCEQYCSDHTGTKRSCRCHEGYSLLADGVSCTPTVEYPCGKIPILEKRNASKPQGRIVGGKVCPKGECPWQVLLLVNGAQLCGGTLINTIWVVSAAHCFDKIKNWRNLIAVLGEHDLSEHDGDEQSRRVAQVIIPSTYVPGTTNHDIALLRLHQPVVLTDHVVPLCLPERTFSERTLAFVRFSLVSGWGQLLDRGATALELMVLNVPRLMTQDCLQQSRKVGDSPNITEYMFCAGYSDGSKDSCKGDSGGPHATHYRGTWYLTGIVSWGQGCATVGHFGVYTRVSQYIEWLQKLMRSEPRPGVLLRAPFPGSPGTSESATPESGPGSEPATSGSETPGTSESATPESGPGSEPATSGSETPGTSESATPESGPGTSTEPSEGSAPGSPAGSPTSTEEGTSESATPESGPGSEPATSGSETPGTSESATPESGPGSPAGSPTSTEEGSPAGSPTSTEEGTSTEPSEGSAPGTSESATPESGPGTSESATPESGPGTSESATPESGPGSEPATSGSETPGSEPATSGSETPGSPAGSPTSTEEGTSTEPSEGSAPGTSTEPSEGSAPGSEPATSGSETPGTSESATPESGPGTSTEPSEGSAPGSSS
Apparent MW [1]: 650 kDa
RH (hydrodynamic radius) [1]: 8.2 nm
Apparent Molecular Weight Factor [1]: 8.5

GPCR Ca2+ flux mobilization, EC50 [5]: 529 nM
B5: conjugate GLP2-2G-XTEN (protein, part only; not given: added cysteine position, not shown: small tags and cut ends)
peptide, part: HGDGSFSDEMNTILDNLAARDFINWLIQTKITD
chain: GSPGSPAGSPTSTEEGTSESATPESGPGTSTEPSEGSAPGSPAGSPTSTEEGTSTEPSEGSAPGTSTEPSEGSAPGTSESATPESGPGSEPATSGSETPGSEPATSGSETPGSPAGSPTSTEEGTSESATPESGPGTSTEPSEGSAPGTSTEPSEGSAPGSPAGSPTSTEEGTSTEPSEGSAPGTSTEPSEGSAPGTSESATPESGPGTSTEPSEGSAPGTSESATPESGPGSEPATSGSETPGTSTEPSEGSAPGTSTEPSEGSAPGTSESATPESGPGTSESATPESGPGSPAGSPTSTEEGTSESATPESGPGSEPATSGSETPGTSESATPESGPGTSTEPSEGSAPGTSTEPSEGSAPGTSTEPSEGSAPGTSTEPSEGSAPGTSTEPSEGSAPGTSTEPSEGSAPGSPAGSPTSTEEGTSTEPSEGSAPGTSESATPESGPGSEPATSGSETPGTSESATPESGPGSEPATSGSETPGTSESATPESGPGTSTEPSEGSAPGTSESATPESGPGSPAGSPTSTEEGSPAGSPTSTEEGSPAGSPTSTEEGTSESATPESGPGTSTEPSEGSAPGTSESATPESGPGSEPATSGSETPGTSESATPESGPGSEPATSGSETPGTSESATPESGPGTSTEPSEGSAPGSPAGSPTSTEEGTSESATPESGPGSEPATSGSETPGTSESATPESGPGSPAGSPTSTEEGSPAGSPTSTEEGTSTEPSEGSAPGTSESATPESGPGTSESATPESGPGTSESATPESGPGSEPATSGSETPGSEPATSGSETPGSPAGSPTSTEEGTSTEPSEGSAPGTSTEPSEGSAPGSEPATSGSETPGTSESATPESGPGTSTEPSEGSAPGR
modifications: N-terminal alpha-amino group modified with sulfo-SMCC and linked to GLP2-Cys; added cysteine thiol linked through the sulfo-SMCC cross-linker (maleimide) to the N-terminal alpha-amino group of the XTEN chain
